Molecular target: SARS-CoV-2 S receptor-binding domain (RBD), biotinylated (SARS-CoV-2, UniProt P0DTC2, biotin on the Avi tag (enzymatic, BirA))
Assay: cell-based or functional assay

B1: FD20 (IgG format) (antibody, V domains shown)
VH: QVQLQQSGAEVKKPGSSVKVSCKASGGTFSSYAFSWVRQAPGQGLEWMGRIIPILGIANYAQKFQGRVTITADISTSTAYMALSSLRSEDTAVYYCAKVEVNIGMDDYYYYYGMDVWGQGTTVTVSS
VL: not shown
With B1 the “neutralisation of SARS-CoV-2 pp harbouring wild-type S, IC50 (fold in brackets)” value was 0.012 µM.

Reference: article PMC8646660 (EMBO Molecular Medicine, 2021)
